We go through four molecules from patent US20260193348A1 (ANTENGENE BIOLOGICS, published 2026).

Assay [1] concerns the target T1, CD3 on Jurkat cells (UniProt P07766 23-207; P04234 22-171; P09693 23-182).
T1 construct: whole, on cells; On the cell, CD3 stands in the TCR-CD3 complex; also called cluster of differentiation 3
Description: FACS on Jurkat cells. How it is done:
(§1) The binding affinities of the generated humanized Fab-scFv-Fab bispecific antibodies were determined by FACS analysis. […] (a) Jurkat cells were washed by Staining Buffer (PBS+1% BSA) in round bottom 96-well plate. [0833] (b) Antibody dilutions and cells were added to each well, incubated at 4 degrees for 1 hour. [0834] (c) Cells were spined down at 300 g for 3 minutes, and the supernatants were discarded. [0835] (d) Cells were washed with Staining Buffer. […] (e) Step (d) was repeated and the cells were incubated for 0.5 hours at 4 degrees with secondary antibody in Staining Buffer. [0837] (f) After incubation, step (d)-(e) were repeated. […] (g) Staining Buffer was added and fluorescence signals were recorded by flow cytometry.
The binding affinities of the generated humanized Fab-scFv-Fab bispecific antibodies were determined by FACS analysis. The protocol for FACS analysis is identical to that described in Example 3.2, except that different test antibodies were used.

The target in assay [2] is T2, GPRC5D on MM.1S cells (human, UniProt Q9NZD1 1-345). Description: cell-based or functional assay.
Assay [3] has as its target T2, GPRC5D on MM.1S cells. Description: cell-based or functional assay. The source holds these as a separate data set.
Assay [4] concerns the target T2, GPRC5D on MM.1S cells. Description: FACS on MM.1S cells.
Assay [5] addresses T2, GPRC5D on MM.1S cells. Description: cell-based or functional assay. This is another data set of the same source.
In assay [6] the target is T2, GPRC5D on MM.1S cells. Description: FACS on MM.1S cells. The procedure: To evaluate the binding affinity of the generated chimeric bispecific antibody to T cells, the isolated CD3⁺ T cells were stained by antibodies and the binding affinity was determined by FACS analysis. The protocol of FACS analysis is described as follows: [0785] (a) CD3⁺ T cells were isolated from normal donors. [0786] (b) The isolated CD3⁺ T cells were washed by Staining Buffer (PBS+1% BSA) in round bottom 96-well plate. […] (c) Antibody dilutions were added to each well and mixed with the CD3+ T cells, incubated at 4 degrees for 1 hour. […] (d) Cells were spined at 300 g for 3 minutes, then the supernatants were discarded. [0789] (e) Cells were washed with Staining Buffer. [0790] (f) Step (d) was repeated, and the cells were incubated with secondary antibody in Staining Buffer for 0.5 hours at 4 degrees. [0791] (g) After incubation, step (d)-(e) were repeated. [0792] (h) Cells were resuspended in Staining Buffer and fluorescence signals were recorded by flow cytometry.
The binding affinities of the generated humanized Fab-scFv-Fab bispecific antibodies to MM.1S were evaluated by FACS analysis. The protocol for FACS analysis is identical to that described in Example 1.2, except that MM.1S were used in this example.
This is another data set of the same source.

For assay [7], the target named is T1, CD3 on Jurkat cells. Nature of the assay: FACS on Jurkat cells. The procedure:
as §1
The binding affinities of the generated humanized Fab-scFv-Fab bispecific antibodies were determined by FACS analysis. The ATG-Bis-40E9 described in Example 1 was used as positive control and hIgG1 isotype was used as negative control. The protocol for FACS analysis is described in Example 3.2 above.
This is another data set of the same source.

For assay [8], the target named is T2, GPRC5D on MM.1S cells. Description: cell-based or functional assay. This is another data set of the same source.
Assay [9] concerns the target T3, CD3 on T cells / Jurkat cells (human, UniProt P07766 23-207; P04234 22-171; P09693 23-182).
T3 construct: whole, on cells; Native CD3 complex on CD3+ T cells isolated from normal donors or on Jurkat cells; also called human CD3; CD3+ T cells
Nature of the assay: FACS on Jurkat cells expressing CD3.

In a further assay the target is T4, CD20 on DoHH2 cells (human, UniProt P11836 1-297).
T4 construct: whole, on cells; Endogenous CD20 on the human DoHH2 cell line; also called DoHH2 cells expressing CD20
T4 sequence (looked up): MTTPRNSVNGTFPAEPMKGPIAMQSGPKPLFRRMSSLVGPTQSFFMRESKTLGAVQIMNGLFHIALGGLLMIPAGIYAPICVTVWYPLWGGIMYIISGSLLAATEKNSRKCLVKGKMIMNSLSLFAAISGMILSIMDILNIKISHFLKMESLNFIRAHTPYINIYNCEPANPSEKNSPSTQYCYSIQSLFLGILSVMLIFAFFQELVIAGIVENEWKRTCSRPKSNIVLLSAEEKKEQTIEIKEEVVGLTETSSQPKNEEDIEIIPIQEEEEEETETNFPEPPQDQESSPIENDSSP
Description: FACS on DoHH2 cells expressing CD20 (FIG. 45E).

T2 sequence (Q9NZD1 whole entry): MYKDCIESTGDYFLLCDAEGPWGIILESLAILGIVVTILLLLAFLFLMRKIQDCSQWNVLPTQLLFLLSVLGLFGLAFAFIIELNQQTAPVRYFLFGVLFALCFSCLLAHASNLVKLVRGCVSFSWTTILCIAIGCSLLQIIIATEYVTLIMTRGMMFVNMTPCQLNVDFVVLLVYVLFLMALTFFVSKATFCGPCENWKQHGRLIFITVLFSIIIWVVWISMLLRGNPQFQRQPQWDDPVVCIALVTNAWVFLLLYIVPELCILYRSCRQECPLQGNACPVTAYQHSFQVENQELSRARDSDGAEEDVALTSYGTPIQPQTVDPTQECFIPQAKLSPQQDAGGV
T3 sequence (P07766 23-207, chain 1 of 3): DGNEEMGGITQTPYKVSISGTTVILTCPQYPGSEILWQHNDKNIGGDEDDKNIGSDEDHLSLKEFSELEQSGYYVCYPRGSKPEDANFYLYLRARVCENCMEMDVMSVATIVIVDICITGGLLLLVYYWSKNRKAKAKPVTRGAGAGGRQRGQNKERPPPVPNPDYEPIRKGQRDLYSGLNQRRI
T3 sequence (P04234 22-171, chain 2 of 3): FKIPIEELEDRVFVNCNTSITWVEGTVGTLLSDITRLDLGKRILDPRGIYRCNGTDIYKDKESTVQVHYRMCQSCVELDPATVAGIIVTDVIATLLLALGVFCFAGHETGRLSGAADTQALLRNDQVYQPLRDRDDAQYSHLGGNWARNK
T3 sequence (P09693 23-182, chain 3 of 3): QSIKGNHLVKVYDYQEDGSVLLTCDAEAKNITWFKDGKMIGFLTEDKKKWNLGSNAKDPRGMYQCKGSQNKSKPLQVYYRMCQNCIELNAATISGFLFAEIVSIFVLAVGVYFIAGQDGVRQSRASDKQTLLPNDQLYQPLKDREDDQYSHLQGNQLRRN
T1 sequence (P07766 23-207, chain 1 of 3): as the sequence (P07766 23-207, chain 1 of 3) above
T1 sequence (P04234 22-171, chain 2 of 3): as the sequence (P04234 22-171, chain 2 of 3) above
T1 sequence (P09693 23-182, chain 3 of 3): as the sequence (P09693 23-182, chain 3 of 3) above

B1: ATG-Bis-40E9 (bispecific antibody)
heavy: EVQLQQSGPELVKPGASVKMSCKASGYTFTSYVIHWVKQKTGQGLEWIGYFNPYNDGTKYNEEFKGKATLTSDKSSNTAYMELNSLTSDDSAVYFCARGGVRRYFDVWGAGTTVTVSS
heavy (part 1 of 2): EVQLQQSGPELVKPGASVKMSCKASGYTFTSYVIHWVKQKTGQGLEWIGYFNPYNDGTKYNEEFKGKATLTSDKSSNTAYMELNSLTSDDSAVYFCARGGVRRYFDVWGAGTTVTVSS
heavy (part 2 of 2): GGGGSGGGGSEVQLQLSGPELVKPGASVKMSCKASGYTFSSYVIHWVKQKPGQGLEWIGYINPYNDVIKYNEKFKGKATLTSDKSSSTAYMELSSLTSEDSAVYYCARDSYYSYDGFAYWGQGTLVTVSAGGGGSGGGGSGGGGSGGGGSQIVLTQSPAIMSASPGEKVTMTCSASSSVSYMHWYQQKSGTSPKRWIYDTSKLASGVPARFSGSGSGTSYSLTISSMEAEDAATYYCQQWSSNPPTFGGGTKVEIKGGGGSGGGGS
light: DIQMTQSPSSLSASLGERVSLTCRASQDIGSNLNWLQQEPDGTIKRLIYATFGLDSGVPKRFSGSRSGSDYSLTISSLESEDFVDYYCQQYASFPYTFGGGTKLEIK
notes: Fab-scFv-Fab format: two anti-GPRC5D Fab domains and one anti-CD3 scFv; LALA mutations; also called chimeric 2+1 bispecific antibody; parental antibody control; not shown: CH1; CL; CH1-hinge-CH2-CH3 with L234A, L235A; CH2-CH3 with L234A, L235A
B1: in the assay with CD3 on Jurkat cells [1], the “Ratio of EC50 (relative to ATG-Bis-40E9)” value worked out at 1 ratio and the “Ratio of Top MFI (relative to ATG-Bis-40E9)” value came out at 1 ratio. Besides, in the assay with GPRC5D on MM.1S cells [2], the “IC50 of T-cell dependent cytotoxicity on MM.1S cells” value was 0.00063 nM and the “Top (%) target cell killing, MM.1S cells” value worked out at 99.2%. For the same molecule, in the assay with GPRC5D on MM.1S cells [3], the “EC50, Jurkat-NFAT-Luciferase assay in the presence of MM.1S cells” value is 0.011 nM and the “Top RLU, Jurkat-NFAT-Luciferase assay in the presence of MM.1S cells” value amounted to 564 RLU. Also, in the assay with GPRC5D on MM.1S cells [4], the EC50 is 2.43 nM and the Top signal stood at 1880 MFI. Further, in the assay with GPRC5D on MM.1S cells [5], the “Ratio of IC50 (relative to ATG-Bis-40E9), MM.1S cytotoxicity” value was 1 ratio and the “Ratio of Top cytotoxicity (relative to ATG-Bis-40E9), MM.1S cytotoxicity” value was 1 ratio. In the assay with GPRC5D on MM.1S cells [6], the “Ratio of EC50 (relative to ATG-Bis-40E9)” value was 1 ratio and the “Ratio of Top MFI (relative to ATG-Bis-40E9)” value came to 1 ratio. In the assay with CD3 on Jurkat cells [7], this molecule came in with an EC50 of 74.7 nM. Also, in the assay with GPRC5D on MM.1S cells [8], the “Ratio of EC50 (relative to ATG-Bis-40E9), luciferase assay on MM.1S” value was determined as 1 ratio and the “Ratio of Top RLU (relative to ATG-Bis-40E9), luciferase assay on MM.1S” value is 1 ratio.

B2: ATG201-Y101F-20R (bispecific antibody, human IgG1, kappa, L234A L235A)
heavy 1: not shown
heavy 2: QVQLQQPGAELVKPGASVKMSCKASGYTFTSYNMHWVKQTPGRGLEWIGAIYPGNGDTSYNQKFKGKATLTADKSSSTAYMQLSSLTSEDSAVYYCARSTYYGGDWYFNVWGAGTTVTVSAASTKGPSVFPLAPSSKSTSGGTAALGCLVKDYFPEPVTVSWNSGALTSGVHTFPAVLQSSGLYSLSSVVTVPSSSLGTQTYICNVNHKPSNTKVDKKVEPKSCGGGGSGGGGSEVQLVQSGAEVKKPGSSVKVSCKASGYTFSSYVIHWVRQAPGQCLEWMGYINPYNDVIKYNEKFKGRVTLTSDKSTSTAYMELSSLRSEDTAVYYCARDSFYSYDGFAYWGQGTLVTVSSGGGGSGGGGSGGGGSGGGGSEIVLTQSPDFQSVTPKEKVTITCSASSSVSYMHWYQQKPDQSPKRLIYDTSKLASGVPSRFSGSGSGTDFTLTINSLEAEDAATYYCQQWSSNPPTFGCGTKVEIKGGGGSGGGGSDKTHTCPPCPAPEAAGGPSVFLFPPKPKDTLMISRTPEVTCVVVDVSHEDPEVKFNWYVDGVEVHNAKTKPREEQYNSTYRVVSVLTVLHQDWLNGKEYKCKVSNKALPAPIEKTISKAKGQPREPQVCTLPPSREEMTKNQVSLSCAVKGFYPSDIAVEWESNGQPENNYKTTPPVLDSDGSFFLVSKLTVDKSRWQQGNVFSCSVMHEALHNHYTQKSLSLSPGK
light: QIVLSQSPAILSASPGEKVTMTCRASSSVSYIHWFQQKPGSSPKPWIYATSNLASGVPVRFSGSGSGTSYSLTISRVEAEDAATYYCQQWTSNPPTFGGGTKLEIKRTVAAPSVFIFPPSDEQLKSGTASVVCLLNNFYPREAKVQWKVDNALQSGNSQESVTEQDSKDSTYSLSSTLTLSKADYEKHKVYACEVTHQGLSSPVTKSFNRGEC
notes: CD20xCD3 Fab-scFv-Fab: two C20R Fabs, anti-CD3 scFv 40E9-L2H3-Y101F.H; L234A/L235A
As for B2, the binding result in assay [9] is reported as “binds”. A half-maximal effect in the assay with CD20 on DoHH2 cells (EC50) was put at 4.05 nM.

B3: ATG201-N55S-20R (bispecific antibody, human IgG1, kappa, L234A L235A)
heavy 1: not shown
heavy 2: QVQLQQPGAELVKPGASVKMSCKASGYTFTSYNMHWVKQTPGRGLEWIGAIYPGNGDTSYNQKFKGKATLTADKSSSTAYMQLSSLTSEDSAVYYCARSTYYGGDWYFNVWGAGTTVTVSAASTKGPSVFPLAPSSKSTSGGTAALGCLVKDYFPEPVTVSWNSGALTSGVHTFPAVLQSSGLYSLSSVVTVPSSSLGTQTYICNVNHKPSNTKVDKKVEPKSCGGGGSGGGGSEVQLVQSGAEVKKPGSSVKVSCKASGYTFSSYVIHWVRQAPGQCLEWMGYINPYSDVIKYNEKFKGRVTLTSDKSTSTAYMELSSLRSEDTAVYYCARDSYYSYDGFAYWGQGTLVTVSSGGGGSGGGGSGGGGSGGGGSEIVLTQSPDFQSVTPKEKVTITCSASSSVSYMHWYQQKPDQSPKRLIYDTSKLASGVPSRFSGSGSGTDFTLTINSLEAEDAATYYCQQWSSNPPTFGCGTKVEIKGGGGSGGGGSDKTHTCPPCPAPEAAGGPSVFLFPPKPKDTLMISRTPEVTCVVVDVSHEDPEVKFNWYVDGVEVHNAKTKPREEQYNSTYRVVSVLTVLHQDWLNGKEYKCKVSNKALPAPIEKTISKAKGQPREPQVCTLPPSREEMTKNQVSLSCAVKGFYPSDIAVEWESNGQPENNYKTTPPVLDSDGSFFLVSKLTVDKSRWQQGNVFSCSVMHEALHNHYTQKSLSLSPGK
light: QIVLSQSPAILSASPGEKVTMTCRASSSVSYIHWFQQKPGSSPKPWIYATSNLASGVPVRFSGSGSGTSYSLTISRVEAEDAATYYCQQWTSNPPTFGGGTKLEIKRTVAAPSVFIFPPSDEQLKSGTASVVCLLNNFYPREAKVQWKVDNALQSGNSQESVTEQDSKDSTYSLSSTLTLSKADYEKHKVYACEVTHQGLSSPVTKSFNRGEC
notes: CD20xCD3 Fab-scFv-Fab: two C20R Fabs, anti-CD3 scFv 40E9-L2H3-N55S.H; L234A/L235A
Turning to B3, the binding result in assay [9] is “binds”. Also, in the assay with CD20 on DoHH2 cells, the EC50 was determined as 3.13 nM.

B4: ATG201-Y101F-200 (bispecific antibody, human IgG1, kappa, L234A L235A)
heavy 1: not shown
heavy 2: EVQLVESGGGLVQPGRSLRLSCAASGFTFNDYAMHWVRQAPGKGLEWVSTISWNSGSIGYADSVKGRFTISRDNAKKSLYLQMNSLRAEDTALYYCAKDIQYGNYYYGMDVWGQGTTVTVSSASTKGPSVFPLAPSSKSTSGGTAALGCLVKDYFPEPVTVSWNSGALTSGVHTFPAVLQSSGLYSLSSVVTVPSSSLGTQTYICNVNHKPSNTKVDKKVEPKSCGGGGSGGGGSEVQLVQSGAEVKKPGSSVKVSCKASGYTFSSYVIHWVRQAPGQCLEWMGYINPYNDVIKYNEKFKGRVTLTSDKSTSTAYMELSSLRSEDTAVYYCARDSFYSYDGFAYWGQGTLVTVSSGGGGSGGGGSGGGGSGGGGSEIVLTQSPDFQSVTPKEKVTITCSASSSVSYMHWYQQKPDQSPKRLIYDTSKLASGVPSRFSGSGSGTDFTLTINSLEAEDAATYYCQQWSSNPPTFGCGTKVEIKGGGGSGGGGSDKTHTCPPCPAPEAAGGPSVFLFPPKPKDTLMISRTPEVTCVVVDVSHEDPEVKFNWYVDGVEVHNAKTKPREEQYNSTYRVVSVLTVLHQDWLNGKEYKCKVSNKALPAPIEKTISKAKGQPREPQVCTLPPSREEMTKNQVSLSCAVKGFYPSDIAVEWESNGQPENNYKTTPPVLDSDGSFFLVSKLTVDKSRWQQGNVFSCSVMHEALHNHYTQKSLSLSPGK
light: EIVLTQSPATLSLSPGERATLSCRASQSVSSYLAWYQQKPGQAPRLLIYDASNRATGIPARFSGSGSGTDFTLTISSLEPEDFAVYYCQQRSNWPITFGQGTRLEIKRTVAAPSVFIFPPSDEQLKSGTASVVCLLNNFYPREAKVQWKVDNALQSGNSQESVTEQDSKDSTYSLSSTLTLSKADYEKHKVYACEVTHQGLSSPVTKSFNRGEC
notes: L234A/L235A; also called ATG201-Y101F-20O
For B4, the binding result in [9] is reported as “binds”. The molecule further came in with an EC50 in the assay with CD20 on DoHH2 cells of 7.55 nM.

What is called EC50 is the concentration giving half of the maximal effect. High values mean a need for much substance, low ones an effect from little substance.
